Assay results published in the Human Domainome abundance scans (Beltran et al. 2025).

B1: Unconventional myosin-Ie, residues 1051 to 1108; numbered along this chain, Q12965 (parent)
chain: PQVPQCKALYAYDAQDTDELSFNANDIIDIIKEDPSGWWTGRLRGKQGLFPNNYVTKI

Variants of: B1
Assay: abundance fitness (aPCA) (normalised: wild type 0, dead -1); higher = more abundant; growth selection in yeast, the domain comes from the species named
Settings: Homo sapiens

Abundance fitness, by site and new letter:
K57: N -0.143, W -0.554, P -0.218, S -0.323, V -0.257, Y 0.151, T -0.365, Q -0.315
I58: L -0.091, D -0.089, H -0.333, M 0.015, F -0.116, Y -0.299, T -0.484, S -0.15, R -0.32, V -0.055, G -0.456
